Here are results for one substance from paper PMC11825280.

This assay concerns the target rVSV-EBOV/Mayinga GP (EBOV/H.sap-tc/COD/76/Yambuku-Mayinga), thermolysin-cleaved (Ebola virus (EBOV)) (UniProt Q05320). Nature of the assay: ELISA. (In general: ELISA stands for enzyme-linked immunosorbent assay.)

rVSV-EBOV/Mayinga GP (EBOV/H.sap-tc/COD/76/Yambuku-Mayinga), thermolysin-cleaved (Ebola virus (EBOV)), sequence (Q05320 33-676): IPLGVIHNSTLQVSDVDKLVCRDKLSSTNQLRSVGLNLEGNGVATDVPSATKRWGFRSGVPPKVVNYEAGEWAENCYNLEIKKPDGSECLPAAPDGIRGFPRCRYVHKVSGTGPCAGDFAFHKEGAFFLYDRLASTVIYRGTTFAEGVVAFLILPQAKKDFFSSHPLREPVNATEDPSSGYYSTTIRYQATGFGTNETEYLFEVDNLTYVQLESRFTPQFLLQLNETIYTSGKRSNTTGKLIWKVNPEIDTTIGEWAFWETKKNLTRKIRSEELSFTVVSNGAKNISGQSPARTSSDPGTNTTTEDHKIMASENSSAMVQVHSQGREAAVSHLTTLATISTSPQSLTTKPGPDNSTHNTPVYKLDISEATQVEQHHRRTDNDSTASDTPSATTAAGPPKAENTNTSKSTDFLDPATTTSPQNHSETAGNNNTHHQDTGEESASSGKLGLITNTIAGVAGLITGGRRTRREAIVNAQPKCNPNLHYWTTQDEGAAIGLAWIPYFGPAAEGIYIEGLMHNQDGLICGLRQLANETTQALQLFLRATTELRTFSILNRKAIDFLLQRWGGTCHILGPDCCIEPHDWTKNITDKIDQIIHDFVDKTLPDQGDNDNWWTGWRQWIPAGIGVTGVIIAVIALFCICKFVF

With “soluble human NPC1 domain C (NPC1-C) (from UniProt O15118 23-1278) (domain or fragment)”, the binding AUC came out at 277.
